Assay results reported in patent publication US20050267025A1, “Compositions and methods for treatment of infectious and inflammatory diseases” (priority 2002, published 2005).

Tested on: human monocytes
Assay type: cell-based

B1: Rv0577: ~32 kDa IL-10 producing protein encoded by Rv0577 (cfp32), SEQ ID NO: 2 (protein, listed as Mycobacterium tuberculosis)
chain: MPKRSEYRQGTPNWVDLQTTDQSAAKKFYTSLFGWGYDDNPVPGGGGVYSMATLNGEAVAAIAPMPPGAPEGMPPIWNTYIAVDDVDAVVDKVVPGGGQVMMPAFDIGDAGRMSFITDPTGAAVGLWQANRHIGATLVNETGTLIWNELLTDKPDLALAFYEAVVGLTHSSMEIAAGQNYRVLKAGDAEVGGCMEPPMPGVPNHWHVYFAVDDADATAAKAAAAGGQVIAEPADIPSVGRFAVLSDPQGAIFSVLKPAPQQ
IL-10 inducing activity of Mtb attributed to Rv0577: ~60%
